The subject of data set [1] is SJSA-1 cells. The data set can be described thus: Crystal Violet cytotoxicity assay (Examples 1 and 2), SJSA-1. Here is the method: Typically, test reagents were serial diluted 1:4 in 2 mL deep-well dilution plates, starting at 1 μM (10 dilutions total). 100 μL of diluted samples were added to the cell plates (starting concentration of test samples at 500 nM). […] Medium was discarded, plates were washed once with 200 μL DPBS, stained with 50 μL of 0.2% Crystal Violet solution at room temperature for 15 min, and then washed extensively with tap water. Plates were air-dried, and Crystal Violet was dissolved with 200 μL of 1% SDS solution. Plates were read at 570 nm. Data was analyzed using GraphPad Prism 6. Assays were performed using a seeding density of 1,000 cells per well and compound exposure was for a total of 5 days. When shorter-term exposure was desired, medium containing cytotoxic agents was removed after 4 hours and replaced with fresh growth medium prior to 5-day incubation. For OVCAR3, CaOV3, and NCI-H2110, cells were seeded at 3,000 cells/well and incubated for 5 days with ADC.
In vitro potency of prepared ADCs was assessed using a Crystal Violet assay as detailed in section 1.4.1.
SJSA-1 cells are a human osteosarcoma tumor cell line that are negative for folate receptor alpha.
Typically, test reagents were serially-diluted 1:4 in 2 mL deep-well dilution plates, starting at 1 μM (10 dilutions total). 100 μL of diluted samples were added to the cell plates (starting concentration of test samples at 100 nM). […] Medium was discarded, plates were washed once with 200 μL DPBS, stained with 50 μL of 0.2% Crystal Violet solution at room temperature for 15 min, and then washed extensively with tap water. Plates were air-dried, and Crystal Violet was dissolved with 200 μL of 1% SDS solution. Plates were read at 570 nm. Data was analyzed using GraphPad Prism 6.

Data set [2] has as its system HL-60 cells. The data set is described as follows: Bystander killing assay, Nuclight Red HL-60. The data set is classed as cell-based, human.
Description: The day before study commencement, Nuclight™ Green (NLG) IGROV1 cells were seeded at 5,000 cells/well into 96-well round bottom plates, followed by centrifugation at 1,000 rpm for 3 min at room temperature to ensure formation of a cell pellet. The plate was placed in the vessel of an Incucyte Zoom® (EssenBio science) and incubated at 37° C./5% CO2 overnight. The program was set to collect images of cell growth, and to determine total numbers of nuclear green-stained and nuclear red-stained cells as well as phase-confluency of the cells every two hours. […] 50 μL of cytotoxin solution was added to the NLG-IGROV1 cells and incubated for 30 min. During the incubation period, Nuclight™ Red (NLR) HL-60 (FR^neg) cells were diluted to 2×10^5, 1×10^5 or 5×10^4 cell/mL with fresh media. 50 μL of the NLR-HL60 cell suspension or medium alone was added to the NLG-IGROV1 wells, followed by centrifugation at 1,000 rpm for 3 min at room temperature to ensure re-formation of the cell pellet. The plate was placed back into the vessel of Incucyte Zoom (EssenBio science) and incubated at 37° C./5% CO2 for up to 5 days. Relative cell growth of NLG-IGROV1 was determined by comparison to no ADC or free drug alone added samples using green cell counts. Relative cell growth of HL60 was done similarly, except that red cell count was determined. Determination of IC50 values for both NLG-IGROV1 and NLR-HL-60 was determined using Prism (GraphPad).
In order to assess bystander killing activity, an assay was set up using two labeled cell lines. […] Cytotoxicity was monitored by an Incucyte Zoom® cell imager.
The test system of data set [3] is NCI-N87 cells. The data set is described as follows: Crystal Violet cytotoxicity assay (Example 4), NCI-N87. The data set is classed as cell-based, human. Here is the method:
(§1) Test reagents were serial diluted 1:3 in 2 mL deep-well dilution plates, starting at 200 nM (10 dilutions total). […] Medium was then discarded. […] Plates were read at 570 nm. Data was analyzed using GraphPad Prism 6.

The test system of data set [4] is ZR-75 cells. The data set can be described thus: Crystal Violet cytotoxicity assay (Example 4), ZR-75. In kind it is cell-based, human. Here is the method:
as §1

Like-named read-outs stand apart in the source and are kept apart here.

One may read the IC50 as the concentration that gives 50% inhibition. For “MORAb-003-maleimido-PEG2-Val-Cit-pAB-eribulin [MORAb-202]”, the “killing of FR-negative SJSA-1 cells (off-target), in words” value in data set [1] (Example 1 screening) was “little killing”. Moreover, the IC50 in data set [1] (read-out: Cytotoxicity (IC50) SJSA-1, SJSA-1 cells, mean of replicate experiments, where performed) was above 100 nM. The EC50 was above 100 nM in data set [1] (read-out: cytotoxicity (EC50) on SJSA-1 cells, Example 2); 39.7 nM in data set [2] (HL-60 (FR-negative) cells alone, read-out: EC50, HL-60); 0.24 nM in data set [2] (HL-60 co-cultured with IGROV1, read-out: EC50, HL-60 (co-culture with IGROV-1)). The “cytotoxicity on NCI-N87 cells, in words” value in data set [3] is on record as “weak but specific killing”. In addition, the “cytotoxicity on ZR-75 cells, in words” value in data set [4] is listed as “little killing”.
